{
  "source": "patent US10494417B2",
  "about": "“Peptide inhibitors of BCR-ABL oligomerization” (University of Utah Research Foundation, priority 2014, dated 2019)",
  "molecules": {"B1": {"name": "CCmut3: modified Bcr-Abl coiled-coil domain (residues 1-72) with mutations C38A, K39E, S41R, L45D, E48R, Q60E (protein)", "chain": "MVDPVGFAEAWKAQFPDSEPPRMELRSVGDIEQELERAEARIRRDEQRVNQERFRMIYLETLLAKEKKSYDR"}},
  "key": {"Ba/F3-p210-T315I cells": {"tested_on": "Ba/F3-p210-T315I cells", "test": "Colony forming assay of Ba/F3 BCR-ABL1 T315I cells", "type": "cell-based, mouse", "conditions": "for colony formation, in words: CCmut3 gene delivery (transfection; b502 lentiviral infection) vs EV; for reduction in CFCs / colony forming ability: CCmut3 vs EV", "procedure": "Both EGFP and EGFP-CC^mut3 were transfected into separate groups of cells on day 0. One day following transfection, 1.0×10^6 cells per treatment group were collected and re-suspended in 1.0 mL of PBS. Through serial dilutions, 1.0×10^3 cells in IMDM (Isocove's modified Dulbecco's media) with 2% FBS were seeded into methylcellulose medium in the absence of cytokines (MethoCult H4230 for K562 cells and MethoCult M3234 for p210 and p210-T315I cells) or in the presence of cytokines (MethoCult GF M3434 for parental Ba/F3 cells). Ponatinib was then added in the correct molar amounts (0, 100 pM, 1 nM, or 10 nM) to the methylcellulose medium. Colonies formed were counted after 7 days of incubation. All reagents were purchased from Stem Cell Technologies, Vancouver, BC, Canada. Assay was run three separate times (n=3) in duplicate.\nBriefly, mCherry-positive Ba/F3 cells were re-suspended in IMDM with 2% FBS (Stem Cell Technologies) at a concentration of 10,000 cells/mL. Three hundred microliters of this dilution was added to 3 mL of Methocult media (M3434—Ba/F3 p210 wild-type and mutant lines or M3234—Ba/F3 parental, Stem Cell Technologies). Approximately 1100 cells, or 1.2 mL, were seeded per dish in duplicate for each transfection. Colonies were counted 7 days later in an area of 100 μm^2 per dish.\nAll cells were plated with or without the indicated TKI in three or more independent experiments. Plates were incubated at 37° C. in a 5% CO2 humidified incubator. Colonies were counted 7-14 days later in an area of 50 μm2 per dish using an inverted microscope."}, "Ba/F3-P210 cells": {"tested_on": "Ba/F3-P210 cells", "test": "7-AAD and Annexin V staining of protein-treated Ba/F3-P210 cells", "type": "cell-based, mouse", "conditions": "proteins 30 μM, imatinib 2.5 μM; 48 hours post treatment", "procedure": "0.5 μL of 1 mM 7-AAD (Invitrogen) was added to each sample, followed by a 45 minute incubation on ice. […] Analysis was performed using the FACS Canto-II (BD BioSciences, University of Utah Core Facility) with FACS Diva software. 7-AAD and APC were excited at 488 and 635 nm wavelengths, and emissions were detected at 660 nm. Percentage of apoptosis/necrosis was calculated by the percentage of cells that stained positive for 7-AAD and/or APC. Independent treatments were tested three times (n=3)."}, "K562 cells": {"tested_on": "K562 cells", "test": "Proliferation/viability of transfected K562 cells (trypan blue exclusion)", "type": "cell-based, human", "conditions": "for proliferation/viability of K562 cells: trypan blue exclusion", "procedure": "K562 cells, human leukemia Bcr-Abl^+ cells (gifted from Kojo Elenitoba-Johnson, University of Michigan), were grown in RPMI 1640 media supplemented with 10% FBS, 1% penicillin-streptomycin-glutamine, and 0.1% gentamicin (complete medium). […] Transfections were carried out two days following cell passaging. Then, 2.0×10^6 cells were collected and transfected with 6 μg pf pEGFP, pEGFP-CC^mut3, pmCherry, or pmCherry-CC^mut3 according to the Cell Line Nucleofector Kit V protocol, program T-013, using the Amaxa Nucleofector II (Lonza Group, Basel, Switzerland).\nCell counts were performed using a standard light microscope.\nTwo days following cell passaging, 2.0×10^6 cells were collected by centrifugation at 500×g for 10 min for each transfection group. Following cell collection, 6 lig DNA (pEGFP, pEGFP-CC, pEGFP-CCmut3, pEGFP-Helix2WT, pEGFP-Helix2mut3, pmCherry, pmCherry-CCmut3, or pmCherry-CappedHelix2mut3) was transfected into cells according to the Cell Line Nucleofector® Kit V protocol (program T-013) using the Amaxa Nucleofector II (Lonza Group, Basel, Switzerland). Following transfection, the DNA/cell mixture was added to 10 mL Complete RPMI 1640 media and allowed to incubate at 37° C. for 24, 48, or 72 h until analysis, depending on the assay.\nForty-eight or 72 h following transfection, 100 μL of treated K562 or Ba/F3-p210 cells was mixed with 100 μL trypan blue solution (Life Technologies). The numbers of viable cells (those impermeable to the trypan blue dye) from four different quadrants in an INCYTO™ C-CHIP™ Neubauer hemacytometer (VWR International, Radnor, Pa., USA) were counted using a standard light microscope. Quadrant counts were then averaged to obtain the number of viable cells per mL. For experiments using the Helix2mut3 construct, counts were performed on one aliquot per transfection (n=3 in replicate). In experiments involving the CappedHelix2mut3 construct, counts were performed three times using separate 100 pt aliquots from one transfection (n=1 in triplicate)."}},
  "note": "“Also recorded” adds a separate entry of the source.",
  "data": [
    {"molecule": "B1", "values": [
      {"measurement": "reduction of transformative ability compared to EGFP control", "setting": "Ba/F3-p210-T315I cells; CC^mut3 alone, Ba/F3-p210-T315I", "value": "~40", "unit": "%"},
      {"measurement": "colony formation, in words", "setting": "Ba/F3-p210-T315I cells", "value": "significantly fewer colonies per unit area"},
      {"measurement": "colony formation, in words", "setting": "Ba/F3-p210-T315I cells; listed as CC^mut3", "value": "Inhibition in colony formation"},
      {"measurement": "reduction in CFCs / colony forming ability", "setting": "Ba/F3-p210-T315I cells", "value": "> 10", "unit": "fold"},
      {"measurement": "reduction in CFCs / colony forming ability", "setting": "Ba/F3-p210-T315I cells; listed as CC^mut3", "value": "more than 10 fold"},
      {"measurement": "induction of apoptosis/necrosis", "setting": "Ba/F3-P210 cells", "value": "not statistically different from the untreated control"},
      {"measurement": "proliferation/viability of K562 cells", "setting": "K562 cells; 48 h following transfection, vs EGFP control, n=3", "value": "statistically significant decrease in the proliferation of K562 cells"},
      {"measurement": "proliferation/viability of K562 cells", "setting": "K562 cells; 72 h following transfection, vs mCherry control, n=1", "value": "potent inhibition of cell proliferation"},
      {"measurement": "inhibition of cell proliferation of K562 cells", "setting": "K562 cells; transfected, vs EGFP and WT control (FIG. 9)", "value": "inhibits proliferation; also recorded: significantly greater inhibition"}
    ]}
  ]
}
